The target in this experiment is biotinylated histone H3 peptide acetylated at K14 (residues 1-21). Briefly: BLI; biotinylated H3 or H3K14ac peptide (25 nM) immobilised on streptavidin sensors; BD proteins at 1 or 2 uM; 25 °C; 20 mM Tris pH 7.5, 300 mM NaCl, 1 mM TCEP, 1 uM ZnCl2, 10% glycerol, 0.5 mg/mL BSA; apparent Kd from a double exponential fit. Background: In BLI a coated tip is dipped into the sample, and binding shifts an interference pattern.

The values that follow come from article PMC6441893.

Consider “BD4 protein of PBRM1, GST removed (domain or fragment)”, for which the binding ratio, acetylated versus nonacetylated H3K14 peptide (H3:H3K14ac) turned out to be 1.5.
Next, “BD245 protein of PBRM1, GST removed (domain or fragment)”: 12.3; “BD2 protein of PBRM1, GST removed (domain or fragment)”: 1.7.
In the case of “BD234 protein of PBRM1, GST removed (domain or fragment)” it was 6.8.
